Results: patent US10544202B2, “Mutant proteins and methods for their production” (Medical Research Council, priority 2013, dated 2020)

B1: L99A: rat SERT single mutant L99A (protein)
chain: METTPLNSQKVLSECKDREDCQENGVLQKGVPTTADRAEPSQISNGYSAVPSTSAGDEASHSIPAATTTLVAEIRQGERETWGKKMDFLLSVIGYAVDAGNIWRFPYICYQNGGGAFLLPYTIMAIFGGIPLFYMELALGQYHRNGCISIWRKICPIFKGIGYAICIIAFYIASYYNTIIAWALYYLISSLTDRLPWTSCTNSWNTGNCTNYFAQDNITWTLHSTSPAEEFYLRHVLQIHQSKGLQDLGTISWQLTLCIVLIFTVIYFSIWKGVKTSGKVVWVTATFPYIVLSVLLVRGATLPGAWRGVVFYLKPNWQKLLETGVWVDAAAQIFFSLGPGFGVLLAFASYNKFNNNCYQDALVTSVVNCMTSFVSGFVIFTVLGYMAEMRNEDVSEVAKDAGPSLLFITYAEAIANMPASTFFAIIFFLMLITLGLDSTFAGLEGVITAVLDEFPHIWAKRREWFVLIVVITCVLGSLLTLTSGGAYVVTLLEEYATGPAVLTVALIEAVAVSWFYGITQFCSDVKEMLGFSPGWFWRICWVAISPLFLLFIICSFLMSPPQLRLFQYNYPHWSIVLGYCIGMSSVICIPTYIIYRLISTPGTLKERIIKSITPETPTEIPCGDIRMNAV
B2: L406A: rat SERT single mutant L406A (protein)
chain: METTPLNSQKVLSECKDREDCQENGVLQKGVPTTADRAEPSQISNGYSAVPSTSAGDEASHSIPAATTTLVAEIRQGERETWGKKMDFLLSVIGYAVDLGNIWRFPYICYQNGGGAFLLPYTIMAIFGGIPLFYMELALGQYHRNGCISIWRKICPIFKGIGYAICIIAFYIASYYNTIIAWALYYLISSLTDRLPWTSCTNSWNTGNCTNYFAQDNITWTLHSTSPAEEFYLRHVLQIHQSKGLQDLGTISWQLTLCIVLIFTVIYFSIWKGVKTSGKVVWVTATFPYIVLSVLLVRGATLPGAWRGVVFYLKPNWQKLLETGVWVDAAAQIFFSLGPGFGVLLAFASYNKFNNNCYQDALVTSVVNCMTSFVSGFVIFTVLGYMAEMRNEDVSEVAKDAGPSLAFITYAEAIANMPASTFFAIIFFLMLITLGLDSTFAGLEGVITAVLDEFPHIWAKRREWFVLIVVITCVLGSLLTLTSGGAYVVTLLEEYATGPAVLTVALIEAVAVSWFYGITQFCSDVKEMLGFSPGWFWRICWVAISPLFLLFIICSFLMSPPQLRLFQYNYPHWSIVLGYCIGMSSVICIPTYIIYRLISTPGTLKERIIKSITPETPTEIPCGDIRMNAV
B3: A169L: rat SERT single mutant A169L (protein)
chain: METTPLNSQKVLSECKDREDCQENGVLQKGVPTTADRAEPSQISNGYSAVPSTSAGDEASHSIPAATTTLVAEIRQGERETWGKKMDFLLSVIGYAVDLGNIWRFPYICYQNGGGAFLLPYTIMAIFGGIPLFYMELALGQYHRNGCISIWRKICPIFKGIGYAICIILFYIASYYNTIIAWALYYLISSLTDRLPWTSCTNSWNTGNCTNYFAQDNITWTLHSTSPAEEFYLRHVLQIHQSKGLQDLGTISWQLTLCIVLIFTVIYFSIWKGVKTSGKVVWVTATFPYIVLSVLLVRGATLPGAWRGVVFYLKPNWQKLLETGVWVDAAAQIFFSLGPGFGVLLAFASYNKFNNNCYQDALVTSVVNCMTSFVSGFVIFTVLGYMAEMRNEDVSEVAKDAGPSLLFITYAEAIANMPASTFFAIIFFLMLITLGLDSTFAGLEGVITAVLDEFPHIWAKRREWFVLIVVITCVLGSLLTLTSGGAYVVTLLEEYATGPAVLTVALIEAVAVSWFYGITQFCSDVKEMLGFSPGWFWRICWVAISPLFLLFIICSFLMSPPQLRLFQYNYPHWSIVLGYCIGMSSVICIPTYIIYRLISTPGTLKERIIKSITPETPTEIPCGDIRMNAV
B4: F311A: rat SERT single mutant F311A (protein)
chain: METTPLNSQKVLSECKDREDCQENGVLQKGVPTTADRAEPSQISNGYSAVPSTSAGDEASHSIPAATTTLVAEIRQGERETWGKKMDFLLSVIGYAVDLGNIWRFPYICYQNGGGAFLLPYTIMAIFGGIPLFYMELALGQYHRNGCISIWRKICPIFKGIGYAICIIAFYIASYYNTIIAWALYYLISSLTDRLPWTSCTNSWNTGNCTNYFAQDNITWTLHSTSPAEEFYLRHVLQIHQSKGLQDLGTISWQLTLCIVLIFTVIYFSIWKGVKTSGKVVWVTATFPYIVLSVLLVRGATLPGAWRGVVAYLKPNWQKLLETGVWVDAAAQIFFSLGPGFGVLLAFASYNKFNNNCYQDALVTSVVNCMTSFVSGFVIFTVLGYMAEMRNEDVSEVAKDAGPSLLFITYAEAIANMPASTFFAIIFFLMLITLGLDSTFAGLEGVITAVLDEFPHIWAKRREWFVLIVVITCVLGSLLTLTSGGAYVVTLLEEYATGPAVLTVALIEAVAVSWFYGITQFCSDVKEMLGFSPGWFWRICWVAISPLFLLFIICSFLMSPPQLRLFQYNYPHWSIVLGYCIGMSSVICIPTYIIYRLISTPGTLKERIIKSITPETPTEIPCGDIRMNAV
B5: G278A: rat SERT single mutant G278A (protein)
chain: METTPLNSQKVLSECKDREDCQENGVLQKGVPTTADRAEPSQISNGYSAVPSTSAGDEASHSIPAATTTLVAEIRQGERETWGKKMDFLLSVIGYAVDLGNIWRFPYICYQNGGGAFLLPYTIMAIFGGIPLFYMELALGQYHRNGCISIWRKICPIFKGIGYAICIIAFYIASYYNTIIAWALYYLISSLTDRLPWTSCTNSWNTGNCTNYFAQDNITWTLHSTSPAEEFYLRHVLQIHQSKGLQDLGTISWQLTLCIVLIFTVIYFSIWKGVKTSAKVVWVTATFPYIVLSVLLVRGATLPGAWRGVVFYLKPNWQKLLETGVWVDAAAQIFFSLGPGFGVLLAFASYNKFNNNCYQDALVTSVVNCMTSFVSGFVIFTVLGYMAEMRNEDVSEVAKDAGPSLLFITYAEAIANMPASTFFAIIFFLMLITLGLDSTFAGLEGVITAVLDEFPHIWAKRREWFVLIVVITCVLGSLLTLTSGGAYVVTLLEEYATGPAVLTVALIEAVAVSWFYGITQFCSDVKEMLGFSPGWFWRICWVAISPLFLLFIICSFLMSPPQLRLFQYNYPHWSIVLGYCIGMSSVICIPTYIIYRLISTPGTLKERIIKSITPETPTEIPCGDIRMNAV
B6: L405A: rat SERT single mutant L405A (protein)
chain: METTPLNSQKVLSECKDREDCQENGVLQKGVPTTADRAEPSQISNGYSAVPSTSAGDEASHSIPAATTTLVAEIRQGERETWGKKMDFLLSVIGYAVDLGNIWRFPYICYQNGGGAFLLPYTIMAIFGGIPLFYMELALGQYHRNGCISIWRKICPIFKGIGYAICIIAFYIASYYNTIIAWALYYLISSLTDRLPWTSCTNSWNTGNCTNYFAQDNITWTLHSTSPAEEFYLRHVLQIHQSKGLQDLGTISWQLTLCIVLIFTVIYFSIWKGVKTSGKVVWVTATFPYIVLSVLLVRGATLPGAWRGVVFYLKPNWQKLLETGVWVDAAAQIFFSLGPGFGVLLAFASYNKFNNNCYQDALVTSVVNCMTSFVSGFVIFTVLGYMAEMRNEDVSEVAKDAGPSALFITYAEAIANMPASTFFAIIFFLMLITLGLDSTFAGLEGVITAVLDEFPHIWAKRREWFVLIVVITCVLGSLLTLTSGGAYVVTLLEEYATGPAVLTVALIEAVAVSWFYGITQFCSDVKEMLGFSPGWFWRICWVAISPLFLLFIICSFLMSPPQLRLFQYNYPHWSIVLGYCIGMSSVICIPTYIIYRLISTPGTLKERIIKSITPETPTEIPCGDIRMNAV
B7: P499A: rat SERT single mutant P499A (protein)
chain: METTPLNSQKVLSECKDREDCQENGVLQKGVPTTADRAEPSQISNGYSAVPSTSAGDEASHSIPAATTTLVAEIRQGERETWGKKMDFLLSVIGYAVDLGNIWRFPYICYQNGGGAFLLPYTIMAIFGGIPLFYMELALGQYHRNGCISIWRKICPIFKGIGYAICIIAFYIASYYNTIIAWALYYLISSLTDRLPWTSCTNSWNTGNCTNYFAQDNITWTLHSTSPAEEFYLRHVLQIHQSKGLQDLGTISWQLTLCIVLIFTVIYFSIWKGVKTSGKVVWVTATFPYIVLSVLLVRGATLPGAWRGVVFYLKPNWQKLLETGVWVDAAAQIFFSLGPGFGVLLAFASYNKFNNNCYQDALVTSVVNCMTSFVSGFVIFTVLGYMAEMRNEDVSEVAKDAGPSLLFITYAEAIANMPASTFFAIIFFLMLITLGLDSTFAGLEGVITAVLDEFPHIWAKRREWFVLIVVITCVLGSLLTLTSGGAYVVTLLEEYATGAAVLTVALIEAVAVSWFYGITQFCSDVKEMLGFSPGWFWRICWVAISPLFLLFIICSFLMSPPQLRLFQYNYPHWSIVLGYCIGMSSVICIPTYIIYRLISTPGTLKERIIKSITPETPTEIPCGDIRMNAV
B8: G115A: rat SERT single mutant G115A (protein)
chain: METTPLNSQKVLSECKDREDCQENGVLQKGVPTTADRAEPSQISNGYSAVPSTSAGDEASHSIPAATTTLVAEIRQGERETWGKKMDFLLSVIGYAVDLGNIWRFPYICYQNGGAAFLLPYTIMAIFGGIPLFYMELALGQYHRNGCISIWRKICPIFKGIGYAICIIAFYIASYYNTIIAWALYYLISSLTDRLPWTSCTNSWNTGNCTNYFAQDNITWTLHSTSPAEEFYLRHVLQIHQSKGLQDLGTISWQLTLCIVLIFTVIYFSIWKGVKTSGKVVWVTATFPYIVLSVLLVRGATLPGAWRGVVFYLKPNWQKLLETGVWVDAAAQIFFSLGPGFGVLLAFASYNKFNNNCYQDALVTSVVNCMTSFVSGFVIFTVLGYMAEMRNEDVSEVAKDAGPSLLFITYAEAIANMPASTFFAIIFFLMLITLGLDSTFAGLEGVITAVLDEFPHIWAKRREWFVLIVVITCVLGSLLTLTSGGAYVVTLLEEYATGPAVLTVALIEAVAVSWFYGITQFCSDVKEMLGFSPGWFWRICWVAISPLFLLFIICSFLMSPPQLRLFQYNYPHWSIVLGYCIGMSSVICIPTYIIYRLISTPGTLKERIIKSITPETPTEIPCGDIRMNAV

Columns and labels:
T-REx-293 cells [1] = experiment: Expression level of SERT-mCherry mutants transiently transfected into T-REx-293 cells; type: cell-based; settings: relative to wild-type SERT = 100%; transient transfection
Procedure: (FIG. 3A) Comparison of [^125I]-RTI55 bound to 554 detergent-solubilised Ala/Leu mutants at either 4° C. or after heating at 30° C. for 30 minutes. The data relating to thermostability (the heated samples) have been normalized to the amount of wild-type SERT remaining after heating (40%; horizontal dashed line). The expression level of wild-type SERT is indicated by the vertical dashed line and the grey column (0-200 dpm) represents non-specific binding of [^125I]-RTI55 to the parental T-REx-HEK293 cell line (no SERT). Each data point represents binding to the equivalent of 50,000 cells measured in duplicate (estimated error is ±20% in dpm). […] (FIG. 3C) Amino acid sequence of SERT (SEQ ID NO: 1) showing the positions of the thermostabilising mutations (hatched) that consistently gave >1° C. increase in Tm compared to wild-type SERT; residues in bold and hatched were used to stabilize either SAH6 and/or SAH7. N-linked glycosylation sites are indicated by the hexagons, a putative disulphide bond is shown as a grey line and the N-terminal and C-terminal fusion partners are shown (c-Myc tag and the fluorescent reporter protein mCherry) are indicated.

T-REx-293 cells [2] = experiment: Cell surface expression by confocal microscopy; type: cell-based; set-up: key: *: low expression; **: as wild-type SERT; ***: higher expression than wild-type SERT; settings: estimation by eye of fluorescence upon confocal microscopy

| Molecule | Expression (%) SERT = 100% (T-REx-293 cells [1]) [%] | Cell surface expression (T-REx-293 cells [2]) |
| --- | --- | --- |
| B1 | 131 | ** |
| B2 | 87 | * |
| B3 | 31 | ** |
| B4 | 492 | ** |
| B5 | 39 | * |
| B6 | 543 | *** |
| B7 | 65 | ** |
| B8 | 327 | *** |
